Source: patent publication CN115028722A (BIOCELLS BEIJING BIOTECH CO LTD, dated 2022)
Where a chain is given by its changes, count along the chain named.

B1: 抗TSLP人源化单克隆抗体M432-69H13L (antibody, human IgG2, lambda, V domains shown)
VH: EVQLVQSGAEVKKPGATVKISCCASAYSFTTYWMHWVQQAPGKGLEWMGLIDPSDSETTLNQKFKDRVTLTVDKSTDTAYMELSSLRSEDTAVYYCARSLDGYFDYWGQGTTVTVSS
VL: DIQLTQSPSSLSASVGDRVTITCRAGENIYSYLAWYQQKPGKAPKLLVYNAKILAEGVPSRFSGSGSGTDFTLTISSLQPEDFATYYCQHHYDTPWTFGGGTKLTVLG
B2: 抗TSLP人源化单克隆抗体5F10-69H13L (antibody, human IgG2, lambda, V domains shown)
VH: B1 VH with A26G, T31S, S54T, T58I, T59S, N61S, Y103F, Y106Q
VL: B1 VL
B3: 抗TSLP人源化单克隆抗体9F8-46H13L (antibody, human IgG2, lambda, V domains shown)
VH: B1 VH with E1Q, T17S, I20V, A26G, Q38R, K43Q, L50I, D77S, A97T
VL: B1 VL
B4: Tezepelumab(安进和阿斯利康合作开发抗体) (antibody, V domains shown)
VH: QMQLVESGGGVVQPGRSLRLSCAASGFTFRTYGMHWVRQAPGKGLEWVAVIWYDGSNKHYADSVKGRFTITRDNSKNTLNLQMNSLRAEDTAVYYCARAPQWELVHEAFDIWGQGTMVTVSS
VL: SYVLTQPPSVSVAPGQTARITCGGNNLGSKSVHWYQQKPGQAPVLVVYDDSDRPSWIPERFSGSNSGNTATLTISRGEAGDEADYYCQVWDSSSDHVVFGGGTKLTVLG
B5: 鼠源抗TSLP单克隆抗体5F10-2-25 (antibody, V domains shown)
VH: ELQQSGPQLVRPGASVKISCKASGYSFTSYWMHWVKQRPGQGLEWIGLIDPTDSEISLSQKFKDKATLTVDKLSSTAHMQLSSPTSEDSAVYYCARSLDGFFDQWGQGTTVTV
VL: DIDLTQSPASLSASVGETVTITCRTSENIYSYLAWYQQKQGKSPQLLVYNAKSLAEGVPSRFSGSGSGTQFSLKINSLQPEDFGSYYCQHHYDTPWTFGGGTKLENKT
notes: Mouse hybridoma monoclonal antibody
B6: 鼠源抗TSLP单克隆抗体10D9-M-432 (antibody, V domains shown)
VH: VNCKESGPQLVRPGASVKISCKASAYSFTTYWMHWVKQRPGQGLEWIGLIDPSDSETTLNQKFKDKATLTVDKSSSTAYMQLTSPTSEDSAVYYCARSLDGYFDYWGQGTTVTVSS
VL: DIDLTQSPASLSASVGETVTITCRAGENIYSYLAWYQQKQGKSPQLLVYNAKILAESVPSRFSGSGSGTQFSLKINSLQPEDFGIYSCQHHYDTPWTFGGGTKLE
notes: as for B5
B7: 鼠源抗TSLP单克隆抗体9F8-1-25 (antibody, V domains shown)
VH: VQLQQSGPQLVRPGASVKISCKASGYSFTTYWMHWVKQRPGQGLEWIGIIDPSDSETTLNQKFKDKATLTVDKSSSTAYIQLSSPTSEDSAVYYCTRSLDGYFDYWGQGTTVTV
VL: B6 VL
notes: as for B5

Each binder was assayed against T1, 包含有His标签的重组人源TSLP蛋白(rhTSLP-His) (human) (assay: cell ELISA: antibody blocks binding of rhTSLP-His to hTSLPR/hIL-7Rα-293T/17 cells).
T1 construct: also called rhTSLP-His重组蛋白; rhTSLP-His蛋白

Q: For B1, which IC50 is on record?
A: 4.35 µg/mL

Q: B2 was tested. Which IC50 did it give?
A: 7.57 µg/mL

Q: Which IC50 does the source give for B3 here?
A: 4.05 µg/mL

Q: For B4, which IC50 is on record?
A: 8.93 µg/mL

These binders were tested against T1, 包含有His标签的重组人源TSLP蛋白(rhTSLP-His) (assay: ELISA, rhTSLP-His coated at 100 ng/well).

Q: How did the EC50 turn out when B4 was run?
A: 2.93 nM

Q: Which EC50 does the source give for B5 here?
A: 12.4 nM

Q: B6 was tested. Which EC50 did it give?
A: 8.16 nM

Q: For B7, which EC50 is on record?
A: 11.4 nM

What follows are binders tested against T1, 包含有His标签的重组人源TSLP蛋白(rhTSLP-His) (assay: cell ELISA: antibody blocks binding of 100 ng rhTSLP-His to hTSLPR/hIL-7Rα-293T/17 cells).

Q: B4 was tested. Which IC50 did it give?
A: 6.22 µg/mL

Q: B5 was tested. Which IC50 did it give?
A: 13.4 µg/mL

Q: With B6 as the binder, how does the IC50 read?
A: 12 µg/mL

Q: How did the IC50 turn out when B7 was run?
A: 10.7 µg/mL

The binders below were run against T1, 包含有His标签的重组人源TSLP蛋白(rhTSLP-His) (assay: ELISA as in Example 6, rhTSLP-His coated).

Q: Which EC50 does the source give for B1 here?
A: 4.05 nM

Q: B2 was tested. Which EC50 did it give?
A: 31.6 nM

Q: B3 was tested. Which EC50 did it give?
A: 9.52 nM

Q: For B4, which EC50 is on record?
A: 1.8 nM
